Results published in patent publication US20230279130A1.

How the values were obtained:
[1] = biological target: full length human CCR8 (hCCR8) (human) (UniProt P51685); assay: flow cytometry, CD4+Foxp3+ gated cells of human PBMC stimulated with IL-2 (200 U/ml) for 2 days, anti-human IgG Fc against Foxp3
[2] = biological target: full length human CCR8 (hCCR8) (human) (UniProt P51685); assay: flow cytometry, CD4+Foxp3+ gated cells of resting human PBMC, anti-human IgG Fc against Foxp3
[3] = biological target: full length human CCR8 (hCCR8) (human) (UniProt P51685); assay: flow cytometry, CD4+Foxp3+ gated cells of OKT-3 stimulated human PBMC, anti-human IgG APC against Foxp3 PE

Substance | percent of CD4+Foxp3+ cells in the gate 'Foxp3 ahigG Subset' [1] [%] | percent of CD4+Foxp3+ cells in the gate 'Foxp3 ahigG Subset' [2] [%] | percent of CD4+Foxp3+ cells stained (upper right quadrant) [3] [%]
Anti RSV (antibody) | 0.36 | 0.11 | 
anti-DNP (dinitrophenyl) control antibody |  |  | 6.23
